The assay has as its target T1, Flag-tagged mouse v-ATPase a4 subunit fragment (amino acids 1-388) (mouse, UniProt Q920R6 1-388).
T1 construct: range 1-388; Expressed in 293FT cells from pCMX-Flag/v-ATPase-a4 and used as cell lysate; also called Flag-tagged a4; not shown: Flag tag of vector pCMX-Flag
The experiment in a line: GST pull-down from 293FT lysate, anti-Flag Western blot. The text has this:
ID. NO. 89 (d2) (SEQ ID NO.:154) was cloned into the prokaryotic expression vector, pGEX-2T (Pharmacia, GE Healthcare), expressed as a GST fusion protein in E. coli and purified with glutathione beads. In parallel, cDNA fragments of mouse v-ATPase-a3 (amino acids 1-385) and v-ATPase a4 (amino acids 1-388) were cloned into the eukaryotic expression vector, pCMX-Flag in order to express a Flag-tagged a3 subunit or a4 subunit in mammalian cells. The pCMX-Flag/v-ATPase-a3 and pCMX-Flag/v-ATPase-a4 recombinant plasmids were transfected in 293FT cells and cell lysates were generated in which, the v-ATPase-a3 and v-ATPase-a4 FLAG-tagged polypeptides were readily detected with an anti-Flag antibody (FIG. 21B, II, upper panel).
In order to measure the interaction between d2 (SEQ. ID. NO. 89) and a3 or a4, equal amounts of 293FT lysates containing either Flag-tagged a3 or a4 were incubated with purified GST or GST-d2 at 4° C. for 90 minutes under mild agitation. After washing, the protein mixes were separated on a SDS-PAGE and transferred to PVDF membrane. […] Clearly, only the a3 fragment could be detected in the GST-d2 reactions compared to the GST reactions indicating a specific interaction between d2 and a3 (FIG. 21B, I-a3, upper panel) but not between d2 and a4 (FIG. 21B, I-a4, upper panel). […]
(Immunoblotting shows a protein as a band on a membrane.)

T1 sequence (Q920R6 1-388): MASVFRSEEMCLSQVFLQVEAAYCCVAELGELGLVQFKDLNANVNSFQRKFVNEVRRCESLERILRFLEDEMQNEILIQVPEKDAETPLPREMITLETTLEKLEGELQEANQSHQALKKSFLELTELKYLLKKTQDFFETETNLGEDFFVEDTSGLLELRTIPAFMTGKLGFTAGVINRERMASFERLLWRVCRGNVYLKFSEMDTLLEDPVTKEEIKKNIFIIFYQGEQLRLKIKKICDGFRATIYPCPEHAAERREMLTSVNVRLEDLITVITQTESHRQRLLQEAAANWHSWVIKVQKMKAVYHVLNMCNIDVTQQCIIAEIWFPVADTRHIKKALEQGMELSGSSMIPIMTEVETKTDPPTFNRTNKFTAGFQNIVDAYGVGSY

B1: GST-d2 (GST fusion protein of the human v-ATPase d2 subunit, polypeptide SEQ ID NO.:154 encoded by SEQ. ID. NO. 89) (other)
chain: not shown
notes: also called AB0179 human orthologue; not shown: glutathione S-transferase (GST) tag of the prokaryotic expression vector pGEX-2T (Pharmacia, GE Healthcare)
Consider B1, for which the binding result is “no binding”.
